Columns and labels:
[1] = biological target: T1, ATG9A with N-terminal 6xHis and Twin-StrepII tags (human), Q7Z3C6; assay: cryo-EM structure; conditions: remark: other sources report otherwise
T1 chain: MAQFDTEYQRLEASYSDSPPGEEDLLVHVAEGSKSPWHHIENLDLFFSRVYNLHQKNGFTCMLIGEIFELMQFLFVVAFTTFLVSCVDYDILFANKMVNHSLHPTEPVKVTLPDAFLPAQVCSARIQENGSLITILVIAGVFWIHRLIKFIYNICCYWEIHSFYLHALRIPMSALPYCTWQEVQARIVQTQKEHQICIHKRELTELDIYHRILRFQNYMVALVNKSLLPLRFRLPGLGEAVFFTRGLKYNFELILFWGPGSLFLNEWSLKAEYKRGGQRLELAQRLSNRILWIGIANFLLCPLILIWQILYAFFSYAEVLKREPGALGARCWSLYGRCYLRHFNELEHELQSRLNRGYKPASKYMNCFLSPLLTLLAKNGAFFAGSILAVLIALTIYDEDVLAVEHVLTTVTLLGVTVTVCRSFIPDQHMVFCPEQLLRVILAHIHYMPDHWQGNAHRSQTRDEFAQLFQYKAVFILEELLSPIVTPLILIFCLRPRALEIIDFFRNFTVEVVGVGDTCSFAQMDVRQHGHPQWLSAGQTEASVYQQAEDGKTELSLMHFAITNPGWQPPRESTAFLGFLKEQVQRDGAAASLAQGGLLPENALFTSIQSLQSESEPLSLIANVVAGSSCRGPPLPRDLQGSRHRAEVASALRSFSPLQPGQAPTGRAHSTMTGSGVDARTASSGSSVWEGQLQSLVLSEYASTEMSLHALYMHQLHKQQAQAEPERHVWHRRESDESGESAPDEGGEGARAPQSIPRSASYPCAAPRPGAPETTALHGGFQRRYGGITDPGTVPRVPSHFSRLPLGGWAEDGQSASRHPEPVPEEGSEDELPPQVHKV

[2] = biological target: T2, ATG9A with N-terminal 6xHis and Twin-StrepII tags (human, UniProt Q7Z3C6 1-839); assay: cryo-EM structure
T2 sequence: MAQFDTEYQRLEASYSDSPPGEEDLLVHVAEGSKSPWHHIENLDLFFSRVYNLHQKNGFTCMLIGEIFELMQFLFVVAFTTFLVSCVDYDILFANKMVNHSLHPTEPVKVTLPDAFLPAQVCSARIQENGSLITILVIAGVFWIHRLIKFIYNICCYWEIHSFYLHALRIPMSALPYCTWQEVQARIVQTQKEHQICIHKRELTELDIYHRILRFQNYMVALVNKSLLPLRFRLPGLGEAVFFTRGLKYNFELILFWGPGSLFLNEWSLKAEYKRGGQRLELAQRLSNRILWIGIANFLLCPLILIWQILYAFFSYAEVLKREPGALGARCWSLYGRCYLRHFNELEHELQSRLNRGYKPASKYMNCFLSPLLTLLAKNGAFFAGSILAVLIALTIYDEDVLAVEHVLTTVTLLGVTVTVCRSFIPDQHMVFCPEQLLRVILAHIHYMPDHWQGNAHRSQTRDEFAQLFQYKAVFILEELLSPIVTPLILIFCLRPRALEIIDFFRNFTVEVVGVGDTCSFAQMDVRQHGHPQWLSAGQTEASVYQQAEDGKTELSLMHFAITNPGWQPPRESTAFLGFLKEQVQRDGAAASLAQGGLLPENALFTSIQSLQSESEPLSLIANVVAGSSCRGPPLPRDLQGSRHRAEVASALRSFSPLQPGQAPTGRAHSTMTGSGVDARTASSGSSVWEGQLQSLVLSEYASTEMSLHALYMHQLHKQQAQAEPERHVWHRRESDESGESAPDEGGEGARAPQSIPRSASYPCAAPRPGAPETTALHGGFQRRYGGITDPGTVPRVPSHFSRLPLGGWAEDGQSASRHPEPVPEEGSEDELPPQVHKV

B1: ATG9A with N-terminal 6xHis and Twin-StrepII tags, Q7Z3C6 1-839 (natural protein)
chain: MAQFDTEYQRLEASYSDSPPGEEDLLVHVAEGSKSPWHHIENLDLFFSRVYNLHQKNGFTCMLIGEIFELMQFLFVVAFTTFLVSCVDYDILFANKMVNHSLHPTEPVKVTLPDAFLPAQVCSARIQENGSLITILVIAGVFWIHRLIKFIYNICCYWEIHSFYLHALRIPMSALPYCTWQEVQARIVQTQKEHQICIHKRELTELDIYHRILRFQNYMVALVNKSLLPLRFRLPGLGEAVFFTRGLKYNFELILFWGPGSLFLNEWSLKAEYKRGGQRLELAQRLSNRILWIGIANFLLCPLILIWQILYAFFSYAEVLKREPGALGARCWSLYGRCYLRHFNELEHELQSRLNRGYKPASKYMNCFLSPLLTLLAKNGAFFAGSILAVLIALTIYDEDVLAVEHVLTTVTLLGVTVTVCRSFIPDQHMVFCPEQLLRVILAHIHYMPDHWQGNAHRSQTRDEFAQLFQYKAVFILEELLSPIVTPLILIFCLRPRALEIIDFFRNFTVEVVGVGDTCSFAQMDVRQHGHPQWLSAGQTEASVYQQAEDGKTELSLMHFAITNPGWQPPRESTAFLGFLKEQVQRDGAAASLAQGGLLPENALFTSIQSLQSESEPLSLIANVVAGSSCRGPPLPRDLQGSRHRAEVASALRSFSPLQPGQAPTGRAHSTMTGSGVDARTASSGSSVWEGQLQSLVLSEYASTEMSLHALYMHQLHKQQAQAEPERHVWHRRESDESGESAPDEGGEGARAPQSIPRSASYPCAAPRPGAPETTALHGGFQRRYGGITDPGTVPRVPSHFSRLPLGGWAEDGQSASRHPEPVPEEGSEDELPPQVHKV
Question: B1 was tested. Which stoichiometry N [1] did it give?
Answer: 3

B2: human ATG2A, full length (natural protein)
chain: MSRWLWPWSNCVKERVCRYLLHHYLGHFFQEHLSLDQLSLDLYKGSVALRDIHLEIWSVNEVLESMESPLELVEGFVGSIEVAVPWAALLTDHCTVRVSGLQLTLQPRRGPAPGAADSQSWASCMTTSLQLAQECLRDGLPEPSEPPQPLEGLEMFAQTIETVLRRIKVTFLDTVVRVEHSPGDGERGVAVEVRVQRLEYCDEAVRDPSQAPPVDVHQPPAFLHKLLQLAGVRLHYEELPAQEEPPEPPLQIGSCSGYMELMVKLKQNEAFPGPKLEVAGQLGSLHLLLTPRQLQQLQELLSAVSLTDHEGLADKLNKSRPLGAEDLWLIEQDLNQQLQAGAVAEPLSPDPLTNPLLNLDNTDLFFSMAGLTSSVASALSELSLSDVDLASSVRSDMASRRLSAQAHPAGKMAPNPLLDTMRPDSLLKMTLGGVTLTLLQTSAPSSGPPDLATHFFTEFDATKDGPFGSRDFHHLRPRFQRACPCSHVRLTGTAVQLSWELRTGSRGRRTTSMEVHFGQLEVLECLWPRGTSEPEYTEILTFPGTLGSQASARPCAHLRHTQILRRVPKSRPRRSVACHCHSELALDLANFQADVELGALDRLAALLRLATVPAEPPAGLLTEPLPAMEQQTVFRLSAPRATLRLRFPIADLRPEPDPWAGQAVRAEQLRLELSEPQFRSELSSGPGPPVPTHLELTCSDLHGIYEDGGKPPVPCLRVSKALDPKSTGRKYFLPQVVVTVNPQSSSTQWEVAPEKGEELELSVESPCELREPEPSPFSSKRTMYETEEMVIPGDPEEMRTFQSRTLALSRCSLEVILPSVHIFLPSKEVYESIYNRINNDLLMWEPADLLPTPDPAAQPSGFPGPSGFWHDSFKMCKSAFKLANCFDLTPDSDSDDEDAHFFSVGASGGPQAAAPEAPSLHLQSTFSTLVTVLKGRITALCETKDEGGKRLEAVHGELVLDMEHGTLFSVSQYCGQPGLGYFCLEAEKATLYHRAAVDDYPLPSHLDLPSFAPPAQLAPTIYPSEEGVTERGASGRKGQGRGPHMLSTAVRIHLDPHKNVKEFLVTLRLHKATLRHYMALPEQSWHSQLLEFLDVLDDPVLGYLPPTVITILHTHLFSCSVDYRPLYLPVRVLITAETFTLSSNIIMDTSTFLLRFILDDSALYLSDKCEVETLDLRRDYVCVLDVDLLELVIKTWKGSTEGKLSQPLFELRCSNNVVHVHSCADSCALLVNLLQYVMSTGDLHPPPRPPSPTEIAGQKLSESPASLPSCPPVETALINQRDLADALLDTERSLRELAQPSGGHLPQASPISVYLFPGERSGAPPPSPPVGGPAGSLGSCSEEKEDEREEEGDGDTLDSDEFCILDAPGLGIPPRDGEPVVTQLHPGPIVVRDGYFSRPIGSTDLLRAPAHFPVPSTRVVLREVSLVWHLYGGRDFGPHPGHRARTGLSGPRSSPSRCSGPNRPQNSWRTQGGSGRQHHVLMEIQLSKVSFQHEVYPAEPATGPAAPSQELEERPLSRQVFIVQELEVRDRLASSQINKFLYLHTSERMPRRAHSNMLTIKALHVAPTTNLGGPECCLRVSLMPLRLNVDQDALFFLKDFFTSLVAGINPVVPGETSAEARPETRAQPSSPLEGQAEGVETTGSQEAPGGGHSPSPPDQQPIYFREFRFTSEVPIWLDYHGKHVTMDQVGTFAGLLIGLAQLNCSELKLKRLCCRHGLLGVDKVLGYALNEWLQDIRKNQLPGLLGGVGPMHSVVQLFQGFRDLLWLPIEQYRKDGRLMRGLQRGAASFGSSTASAALELSNRLVQAIQATAETVYDILSPAAPVSRSLQDKRSARRLRRGQQPADLREGVAKAYDTVREGILDTAQTICDVASRGHEQKGLTGAVGGVIRQLPPTVVKPLILATEATSSLLGGMRNQIVPDAHKDHALKWRSDSAQD
Question: For B2, which “stoichiometry N” value [2] is on record?
Answer: 1 ATG2A per ATG9A trimer
